Substitutions are numbered along the chain they refer to.
Tests used:
[1] = molecular target: T1, human CTLA-4 expressed on cells (human, UniProt P16410 36-223); experiment: flow cytometry receptor occupancy, CHO cells expressing PD-1:CTLA-4 (10:1); free CTLA-4 detected with labeled anti-CTLA-4 mAb
T1 construct: also called CTLA-4 reporter cells
T1 sequence: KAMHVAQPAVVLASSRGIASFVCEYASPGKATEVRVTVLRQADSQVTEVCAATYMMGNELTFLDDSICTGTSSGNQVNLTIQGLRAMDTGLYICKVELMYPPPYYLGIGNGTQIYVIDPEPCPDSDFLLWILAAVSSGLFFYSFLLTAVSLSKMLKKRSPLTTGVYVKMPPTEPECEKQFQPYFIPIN

[2] = molecular target: T2, human PD-1 expressed on cells (human, UniProt Q15116 25-288); experiment: flow cytometry, CHO cells expressing PD-1 only
T2 construct: also called CHO cells overexpressing human PD1
T2 sequence (Q15116 25-288 limits assumed): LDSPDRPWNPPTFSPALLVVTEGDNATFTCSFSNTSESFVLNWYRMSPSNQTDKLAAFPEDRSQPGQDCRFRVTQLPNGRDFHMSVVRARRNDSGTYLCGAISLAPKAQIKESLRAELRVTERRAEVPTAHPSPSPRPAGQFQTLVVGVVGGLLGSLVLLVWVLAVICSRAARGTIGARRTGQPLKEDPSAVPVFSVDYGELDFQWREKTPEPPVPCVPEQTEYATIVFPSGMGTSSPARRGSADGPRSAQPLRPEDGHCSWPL

[3] = molecular target: T1, human CTLA-4 expressed on cells; experiment: flow cytometry receptor occupancy, CHO cells expressing PD-1:CTLA-4 (10:1); free CTLA-4 detected with labeled anti-CTLA-4 mAb; remark: listed apart in the source
[4] = molecular target: T2, human PD-1 expressed on cells; experiment: flow cytometry receptor occupancy, CHO cells expressing PD-1:CTLA-4 (10:1); free PD-1 detected with labeled anti-PD-1 mAb
[5] = molecular target: T1, human CTLA-4 expressed on cells; experiment: flow cytometry, CHO cells expressing CTLA-4 only
[6] = molecular target: T2, human PD-1 expressed on cells; experiment: flow cytometry receptor occupancy, CHO cells expressing PD-1:CTLA-4 (40:1); free PD-1 detected with labeled anti-PD-1 mAb
[7] = molecular target: T1, human CTLA-4 expressed on cells; experiment: flow cytometry receptor occupancy, CHO cells expressing PD-1:CTLA-4 (40:1); free CTLA-4 detected with labeled anti-CTLA-4 mAb
[8] = molecular target: T1, human CTLA-4 expressed on cells; experiment: receptor occupancy on CHO cells, flow cytometry
[9] = molecular target: T1, human CTLA-4 expressed on cells; experiment: receptor occupancy on CHO cells expressing excess PD-1, flow cytometry
mouse PD-1 = molecular target: T3, mouse PD-1 (mouse, UniProt Q02242 25-167); experiment: SPR, BIAcore T200; antibody captured on mouse anti-huIgG-Fab, antigen injected
T3 construct: also called mu PD1
T3 sequence (looked up): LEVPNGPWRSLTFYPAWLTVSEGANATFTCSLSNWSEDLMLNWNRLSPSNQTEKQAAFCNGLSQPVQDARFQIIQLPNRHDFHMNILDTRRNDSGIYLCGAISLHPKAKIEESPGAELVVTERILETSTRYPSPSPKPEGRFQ
Procedure: (§1) Binding experiments were carried out using a BIAcore T200 instrument (BIAcore). To capture the antibody, mouse anti-huIgG-Fab was immobilized on a CM5 chip to a target response of 2000 RU. 100 nM of the DuetMab or mAbs were flowed at 20 μL/min for 5 min to achieve approximately 100 response units of captured antibody. Antigen were then injected serially at a flow rate of 50 μl/min for 5 min. Kinetic parameters (kₒₙ and koff) and dissociation constant (KD) were calculated from a non-linear fit using BIAevaluation 4.1 software.

[10] = molecular target: T4, human PD-1 antigen (soluble) (human, UniProt Q15116 25-170); experiment: as above
T4 construct: also called hu PD1; Biotinylated human PD-1
T4 sequence (Q15116 25-170 limits assumed): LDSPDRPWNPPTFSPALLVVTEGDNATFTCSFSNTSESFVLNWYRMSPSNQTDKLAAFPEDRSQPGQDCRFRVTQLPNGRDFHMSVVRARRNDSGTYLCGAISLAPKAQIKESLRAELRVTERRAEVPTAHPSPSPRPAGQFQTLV
Procedure: as §1

cynomolgus PD-1 = molecular target: T5, cynomolgus PD-1 (cynomolgus, UniProt B0LAJ3 25-170); experiment: as above
T5 construct: also called cyno PD1
T5 sequence (B0LAJ3 entry or part of it limits assumed): as the sequence (Q15116 25-170 limits assumed) above, with D2E, P10A, V19L, T35A, Q75R, T144A counted along it
Procedure: as §1

[11] = molecular target: T6, human CTLA-4 antigen (soluble) (human, UniProt P16410 36-161); experiment: as above
T6 construct: also called hu CTLA4; soluble CTLA-4 antigen
T6 sequence: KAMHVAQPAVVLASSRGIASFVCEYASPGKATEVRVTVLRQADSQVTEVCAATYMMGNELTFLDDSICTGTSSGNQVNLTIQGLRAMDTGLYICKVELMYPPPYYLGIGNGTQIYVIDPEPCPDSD
Procedure: as §1

cynomolgus CTLA-4 = molecular target: T7, cynomolgus CTLA-4 (cynomolgus, UniProt G7PL88 36-161); experiment: as above
T7 construct: also called cyno CTLA4
T7 sequence: T6 sequence with S14N, I18T, L106M
Procedure: as §1

[12] = molecular target: T1, human CTLA-4 expressed on cells; experiment: flow cytometry receptor occupancy, CHO cells expressing CTLA-4 only; free CTLA-4 detected with labeled anti-CTLA-4 mAb
[13] = molecular target: T2, human PD-1 expressed on cells; experiment: cell-based or functional assay
[14] = molecular target: T1, human CTLA-4 expressed on cells; experiment: cell-based or functional assay
[15] = molecular target: T1, human CTLA-4 expressed on cells; experiment: flow cytometry receptor occupancy, CHO cells expressing PD-1:CTLA-4 (40:1); free CTLA-4 detected with labeled anti-CTLA-4 mAb; remark: listed apart in the source

B1: PD-1/CTLA-4 DuetMab (bispecific antibody, human IgG1, kappa, lambda)
heavy 1: EVQLVESGGGLVQPGGSLRLSCAASGFTFSDYGMHWVRQAPGKGLEWVAYISSGSYTIYSADSVKGRFTISRDNAKNSLYLQMNSLRAEDTAVYYCARRAPNSFYEYYFDYWGQGTTVTVSSASTKGPSVFPLAPSSKSTSGGTAALGCLVKDYFPEPVTVSWNSGALTSGVHTFPAVLQSSGLYSLSSVVTVPSSSLGTQTYICNVNHKPSNTKVDKRVEPKSCDKTHTCPPCPAPEFEGGPSVFLFPPKPKDTLMISRTPEVTCVVVDVSHEDPEVKFNWYVDGVEVHNAKTKPREEQYNSTYRVVSVLTVLHQDWLNGKEYKCKVSNKALPASIEKTISKAKGQPREPQVCTLPPSREEMTKNQVSLSCAVKGFYPSDIAVEWESNGQPENNYKTTPPVLDSDGSFFLVSKLTVDKSRWQQGNVFSCSVMHEALHNHYTQKSLSLSPGK
light 1: QIVLTQSPATLSLSPGERATLSCSASSKHTNLYWSRHMYWYQQKPGQAPRLLIYLTSNRATGIPARFSGSGSGTDFTLTISSLEPEDFAVYYCQQWSSNPFTFGQGTKLEIKRTVAAPSVFIFPPSDEQLKSGTASVVCLLNNFYPREAKVQWKVDNALQSGNSQESVTEQDSKDSTYSLSSTLTLSKADYEKHKVYACEVTHQGLSSPVTKSFNRGEC
heavy 2: not shown
light 2: DIQMTQSPSSLSASVGDRVTITCRASQSINSYLDWYQQKPGKAPKLLIYAASSLQSGVPSRFSGSGSGTDFTLTISSLQPEDFATYYCQQYYSTPFTFGPGTKVEIKGQPKAAPSVTLFPPCSEELQANKATLVCLISDFYPGAVTVAWKADSSPVKAGVETTTPSKQSNNKYAASSYLSLTPEQWKSHRSYSCQVTHEGSTVEKTVAPTEVS
notes: also called DuetMab PD-1/CTLA-4; PD-1/CTLA-4 DuetMab bispecific antibody; copies: 1 + 1 + 1 + 1
- IC50 [1]: 0.38 nM
- EC50 (read off the curve) [2]: ~4 nM
- IC50 [3]: 0.38 nM
- IC50 [4]: 12.2 nM
- EC50 (read off the curve) [5]: ~4 nM
- IC50 [6]: 14.4 nM
- IC50 [7]: 0.01 nM
- fold lower concentration to saturate CTLA-4, against cells expressing only CTLA-4 [8]: ~500 fold
- fold lower concentration to saturate CTLA-4, against a combination of the monoclonal antibodies [9]: ~250 fold
- Kd (mouse PD-1): 496 nM
- koff (mouse PD-1): 0.0693 s⁻¹
- kon (mouse PD-1): 140000 M⁻¹ s⁻¹
- Kd [10]: 0.81 nM
- koff [10]: 0.000236 s⁻¹
- kon [10]: 295000 M⁻¹ s⁻¹
- Kd (cynomolgus PD-1): 0.44 nM
- koff (cynomolgus PD-1): 0.000215 s⁻¹
- kon (cynomolgus PD-1): 490000 M⁻¹ s⁻¹
- Kd [11]: 0.62 nM
- koff [11]: 0.000421 s⁻¹
- kon [11]: 684000 M⁻¹ s⁻¹
- Kd (cynomolgus CTLA-4): 0.55 nM
- koff (cynomolgus CTLA-4): 0.000634 s⁻¹
- kon (cynomolgus CTLA-4): 1.14e+06 M⁻¹ s⁻¹
- IC50 [12]: 4.6 nM
- fold decrease in PD-1 reporter gene assay, potency [13]: ~9 fold
- fold decrease in CTLA-4 reporter gene assay, potency [14]: ~16 fold
- IC50 [15]: 0.01 nM
